Assay results from article PMC4860041.

Biological target: taxol-stabilized porcine microtubules (tubulin purified from porcine brain) (UniProt P02550)
Assay: co-sedimentation

Chain of taxol-stabilized porcine microtubules (tubulin purified from porcine brain) (P02550 whole entry, looked up): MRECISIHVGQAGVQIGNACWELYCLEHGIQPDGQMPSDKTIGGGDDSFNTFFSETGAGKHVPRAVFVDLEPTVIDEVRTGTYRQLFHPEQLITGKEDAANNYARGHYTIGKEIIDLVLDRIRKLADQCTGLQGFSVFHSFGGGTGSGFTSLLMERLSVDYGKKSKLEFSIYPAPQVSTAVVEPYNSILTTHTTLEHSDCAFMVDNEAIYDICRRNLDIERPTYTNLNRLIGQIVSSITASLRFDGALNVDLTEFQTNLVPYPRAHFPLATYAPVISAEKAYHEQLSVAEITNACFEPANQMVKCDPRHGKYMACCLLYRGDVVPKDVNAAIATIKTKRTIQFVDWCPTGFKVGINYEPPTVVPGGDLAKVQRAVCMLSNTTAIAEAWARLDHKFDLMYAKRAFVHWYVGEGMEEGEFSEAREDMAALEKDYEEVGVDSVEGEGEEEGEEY

## recombinant GFP-B>A-MNB kinase (Basic-to-Acidic mutant, KKKRR 118-122 to EEEDD)
  apparent Km: a Km of 4.46 ± 2.62 μM (mean ± s.d.)

## recombinant full-length GFP-MNB kinase (Drosophila Minibrain, isoform E)
  apparent Km: a Km of 0.96 ± 0.10 μM (mean ± s.d.)
